This note sets out measurements from patent US20240279618A1, “RECEPTOR TYROSINE KINASE AGONIST, COMPOSITION FOR CELL CULTURE MEDIUM, AND […] MAINTENANCE COMPOSITION” (SEKISUI CHEMICAL CO., LTD., priority 2021, published 2024).

Usually Kd stands for the free concentration of one partner at which half of the binding sites on the other are occupied at equilibrium, for simple one-to-one binding. For orientation: koff means a measure of how fast the partners let go of each other. Usually kon stands for a measure of how fast the partners come together.

Assay [1] deals with FGFR (fibroblast growth factor receptor on NIH3T3 mouse fibroblast cells). Put plainly: cell-based or functional assay.
Assay [2] concerns NIH3T3 (mouse fibroblast cell line). Put plainly: Inhibition of growth factor activity of VHH homodimer by FGFR antagonist. It is filed as cell-based. The note with it: 20 nM. Here is the method: The cell growth assay for FGF2 was performed according to the following procedure. On Day 1, a suspension including 2.5×10^4 cells/mL of NIH3T3 in DMEM of 10% CS and PS(+) was created, seeded on a CulturPlate-96 (White Opaque 96-well Microplate, manufactured by Perkin Elmer, Cat #6005680) at 100 μL/well, and cultured in a 5% CO2 incubator at 37° C. for 16 to 24 hours. On Day 2, the medium was replaced with FGF2 (PeproTech Cat #AF-100-18B) or serum-free PS(+) DMEM including various test substances, and the cells were further cultured for 2 days. On Day 4, the 96-well plate was left at room temperature for 30 minutes, and then 100 μL of Cell Titer Glo 2.0 Reagent (manufactured by Promega Corporation) at room temperature was added to each well, followed by stirring at 500 rpm for 2 minutes using a plate mixer. The plate was further left to stand for 8 minutes, and then the luminescence in each well was measured with a Synergy HTX plate reader (manufactured by BioTek) with a sensitivity set (Gain) of 200 and a measurement time of 1 s/well.
The addition amounts of FGF2 and #1L4 (hereinafter also referred to as “#1-L4-#1”), which is a dimer of VHH #1 with a linker […], were each 10 or 100 ng/mL.

In assay [3] the test system is mouse fibroblast cell line NIH/3T3. Description: Inhibition of growth factor activity of VHH homodimer by FGFR inhibitor (fibroblasts). It is filed as cell-based. The note with it: 20 nM. An excerpt:
Promotion of Fibroblast Growth by VHH (Homodimer)” described above.
It was examined whether the cell growth activities of bFGF and the single-domain antibody were inhibited by NPV-BGJ398 which is an FGFR kinase inhibitor.

The target in assay [4] is FGF Receptor 1β (IIIc)/Fc Chimera Human Recombinant Carrier-free (R & D Systems Cat. no. 661-FR) (human) (UniProt P11362). Description: SPR (Biacore T200, CAP chip, biotinylated FGFR1-Fc captured, VHH injected at 1.85-50 nM, single-cycle kinetics, 1:1 model, 25 C). For orientation: SPR reads the build-up and loss of mass on a sensor chip optically.
The next assay deals with T1, FGFR4-Fc (human, UniProt P22455 22-369, limits assumed).
T1 construct: not shown: Fc part
T1 sequence (looked up): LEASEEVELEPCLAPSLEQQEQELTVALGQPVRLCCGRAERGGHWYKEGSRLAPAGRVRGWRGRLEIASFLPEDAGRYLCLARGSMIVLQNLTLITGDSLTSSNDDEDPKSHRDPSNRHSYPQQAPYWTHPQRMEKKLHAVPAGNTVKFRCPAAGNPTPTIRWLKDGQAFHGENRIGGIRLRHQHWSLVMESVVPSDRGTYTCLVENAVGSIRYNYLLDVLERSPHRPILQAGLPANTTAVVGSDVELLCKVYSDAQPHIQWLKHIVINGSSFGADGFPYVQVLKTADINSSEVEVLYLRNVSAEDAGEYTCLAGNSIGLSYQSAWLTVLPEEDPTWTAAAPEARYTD
Put plainly: SPR (Biacore T200, same manner as Example 5, 1:1 model).

The target of the next assay is T2, FGFR3-Fc (human, UniProt P22607 23-375).
T2 chain: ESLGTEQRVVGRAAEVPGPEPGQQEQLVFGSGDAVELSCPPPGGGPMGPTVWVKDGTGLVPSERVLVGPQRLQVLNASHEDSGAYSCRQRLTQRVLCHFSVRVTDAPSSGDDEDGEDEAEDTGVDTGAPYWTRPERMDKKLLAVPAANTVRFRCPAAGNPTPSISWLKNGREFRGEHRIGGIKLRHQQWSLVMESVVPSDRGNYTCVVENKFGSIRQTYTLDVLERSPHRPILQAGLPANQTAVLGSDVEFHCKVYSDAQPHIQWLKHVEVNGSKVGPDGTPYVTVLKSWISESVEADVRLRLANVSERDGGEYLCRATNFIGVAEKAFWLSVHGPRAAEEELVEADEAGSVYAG
Described as above.

A further assay deals with FGFR2-Fc (human) (UniProt P21802). The assay is described as above.
Assay [5] concerns the target T3, FGFR1-DIII (FGFR1 extracellular domain, DIII domain) (human, UniProt P11362 251-365).
T3 construct: domain: DIII; Expressed in AAVpro293T cells from a synthesised DNA fragment
T3 sequence (looked up): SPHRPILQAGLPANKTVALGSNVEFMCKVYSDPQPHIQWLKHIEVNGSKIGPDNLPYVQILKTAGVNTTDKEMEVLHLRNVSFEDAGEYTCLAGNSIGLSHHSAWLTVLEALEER
Put plainly: BLI (Octet 384), VHH Clone #1 captured on Anti-Penta-HIS sensor, FGFR1 protein in solution from 100 nM in 2-fold dilutions, global 1:1 fit. As to the method: (§1) In the preparation for measurement, a tip of the sensor chip was immersed in 200 μL of the kinetics buffer for 10 minutes in order to hydrate the sensor chip. Thereafter, 70 μL of each measurement solution was added to a 384-well black plate (manufactured by Fortebio), and measurement was performed in the following steps 1) to 6). [0291] 1) Baseline step: Baseline measurement (30 seconds) in a kinetics buffer, [0292] 2) Loading step: Immobilization of a VHH antibody on a sensor (120 seconds), [0293] 3) Baseline step: Baseline measurement (30 seconds) in a kinetics buffer, [0294] […] 5) Dissociation step: Measurement in a kinetics buffer (120 seconds), [0296] 6) Regeneration step: Measurement in Glycin-HCl (pH 2.2) for 5 seconds and measurement in a kinetics buffer for 5 seconds are repeated three times.
(§2) After completion of the measurements, the measured value of a Reference (only the kinetics buffer) was subtracted from the actual measurement value, and Global Fitting was performed using a 1:1 binding model using Octet software to calculate the binding activity (FIG. 22).

The target in assay [6] is T4, FGFR1-DIIDIII (FGFR1 extracellular domain, DII and DIII domains) (human, UniProt P11362 142-365).
T4 construct: domain: DIIDIII; Expressed in AAVpro293T cells from a synthesised DNA fragment
T4 sequence (looked up): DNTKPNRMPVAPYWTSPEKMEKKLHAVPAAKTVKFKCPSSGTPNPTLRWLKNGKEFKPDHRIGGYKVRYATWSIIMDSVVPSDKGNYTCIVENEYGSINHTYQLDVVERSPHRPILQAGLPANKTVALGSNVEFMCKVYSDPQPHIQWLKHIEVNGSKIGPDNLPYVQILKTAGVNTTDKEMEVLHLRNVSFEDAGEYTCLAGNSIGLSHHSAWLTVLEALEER
The description is as above. Here is the method: as §1, §2

The target of assay [7] is T5, FGFR1-DII (FGFR1 extracellular domain, DII domain) (human, UniProt P11362 142-250).
T5 construct: domain: DII; Expressed in AAVpro293T cells from a synthesised DNA fragment
T5 sequence (looked up): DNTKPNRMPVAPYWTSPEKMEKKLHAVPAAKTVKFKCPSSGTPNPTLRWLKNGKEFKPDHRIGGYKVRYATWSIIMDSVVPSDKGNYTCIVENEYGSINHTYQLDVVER
Put plainly: BLI (Octet 384); VHH Clone #1 immobilised on an Anti-Penta-HIS sensor, FGFR1-DII in solution [A]. Here is the method:
as §1, §2
A general note: In BLI a coated tip is dipped into the sample, and binding shifts an interference pattern.

The molecule “basic FGF (PeproTech, AF-100-18B) (from UniProt P09038 135-288) (ligand)” had an EC50 of the growth of cultured fibroblasts (NIH/3T3, Cell Titer Glo luminescence) in assay [1] of 5.1 nM.
As to `CCN1CCN(c2ccc(Nc3cc(N(C)C(=O)Nc4c(Cl)c(OC)cc(OC)c4Cl)ncn3)cc2)CC1` [NVP-BGJ398], the “effect of NVP-BGJ398 itself on cell growth” value in assay [2] and in assay [3] was “little effect on cell growth” in each case.

B1: VHH Clone #2 (VHH monomer Clone #2) (VHH, not shown: small tags and cut ends)
VHH: QVQLVESGGGLVQAGGSLRLSCAVPGSIFRFNTMGWYRQPPGKQRELVAQMSRGGITKYGDSVKGRFTITRDNAKNTVHLQMNSLKPEDTAVYYCAGSYYSGSYYYPSPQGFSVWGQGTQVTVSP
Take B1: in [4], the Kd is 1.02 nM, the koff came out at 0.00114 s⁻¹ and the kon came to 1.11e+06 M⁻¹ s⁻¹.

B2: VHH Clone #1 (VHH monomer Clone #1) (VHH)
VHH: QLQLVESGGGSVQAGGSLRLSCAASRSLSRFNVWTWYRQAPVKQRELVASITKSGDTNYAESVKGRFIISRDDDKNTVYLQMNNLKSEDTGIYYCAGSYYSGSYLYPSPGGFSVWGQGTQVTVSS
notes: also called VHH #1; FGFR #1; not shown: C-terminal His tag (purified on Ni Sepharose, captured on Anti-Penta-HIS sensor)
As to B2, the Kd amounted to 22.2 nM in the assay with FGFR4-Fc; 1010 nM in the assay with FGFR3-Fc; 1630 nM in the assay with FGFR2-Fc (human); 1.18 nM in [5]; 0.489 nM in [6]; 1.74 nM in assay [4]. Moreover, the koff with FGFR4-Fc came out at 0.0527 s⁻¹; with FGFR3-Fc, 0.235 s⁻¹; with FGFR2-Fc (human), 0.776 s⁻¹; in [5], 0.000351 s⁻¹; in [6], 0.000141 s⁻¹. The kon with FGFR4-Fc stood at 2.37e+06 M⁻¹ s⁻¹; with FGFR3-Fc, 232000 M⁻¹ s⁻¹; in the assay with FGFR2-Fc (human), 484000 M⁻¹ s⁻¹; in [5] it was 298000 M⁻¹ s⁻¹; in assay [6] it was 289000 M⁻¹ s⁻¹. Further, in assay [7], the binding result is “no binding”.
